Results: the supplement of paper PMC10126150
± gives the standard deviation of the averaged measurements.

System: ATP
Assay: switch fluorescence ratio, 500 uM ATP over buffer (Cy3 cluster intensity, sum of 5 cycles each) (fold (ratio)); higher = stronger signal-on switching upon ATP binding; sequences stand for … in TCGTCGGCAGCGTCAGATGTGTATAAGAGACAGTTTTTTTTTTTTTTTTTTTTTTTTT…TC
Settings: aptamer strand: ATP DNA aptamer (quencher-CACCTGGGGGAGTATTGCGGAGGAAGG + anchor), 100 nM annealed; ATP concentration: 500 uM
Outline: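 Imaging in selection buffer was followed by imaging after 15 min with 500 uM ATP at 22 °C, for Cy3-labelled switching-strand clusters annealed to 100 nM quencher-labelled ATP aptamer on a modified Illumina MiSeq flow-cell. Five of these buffer/ATP cycles ran, separated by NaOH stripping and re-annealing. The fluorescence ratio per cluster is summed target-cycle over summed buffer-cycle Cy3 intensity, averaged per switch-domain sequence; clusters outside 100-1000 RFU were removed.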
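Also: ATP exposure 15 min at 22 °C before imaging.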

TAAATGACTA and TAAATGGGTG are within error of each other in switch fluorescence ratio: 0.987 ± 0.018 for the first, 1.03 ± 0.028 for the second.

TAAATGTCTG and TAAATTAATC are within error of each other in switch fluorescence ratio: 0.995 ± 0.015 for the first, 1.01 ± 0.018 for the second.

TAAATTAGGG and TAAATTGGTA are within error of each other in switch fluorescence ratio: 0.992 ± 0.033 for the first, 1.04 ± 0.016 for the second.

Compared with TAACAAATAG, TAACAAGGGT is higher in switch fluorescence ratio: 0.9741 ± 0.0062 for the first, 1 ± 0.016 for the second.

First: TAACACTCCT
Second: TAACAGAAGA
The switch fluorescence ratio of the first is higher: 1.1 ± 0.02 for the first, 0.991 ± 0.017 for the second.

TAACAGGGGG and TAACAGGTTT are within error of each other in switch fluorescence ratio: 0.995 ± 0.017 for the first, 0.989 ± 0.016 for the second.

TAACAGTGTG and TAACATCTGT are within error of each other in switch fluorescence ratio: 1.04 ± 0.046 for the first, 0.975 ± 0.021 for the second.

TAACCGCTTT and TAACGAGATT are within error of each other in switch fluorescence ratio: 1.55 ± 0.7 for the first, 1.02 ± 0.026 for the second.

Compared with TAACGCATG, TAACGCTTTT is lower in switch fluorescence ratio: 1.13 ± 0.082 for the first, 1.002 ± 0.0065 for the second.

TAACGGAGGG and TAACGGGATG are within error of each other in switch fluorescence ratio: 0.993 ± 0.04 for the first, 1 ± 0.017 for the second.

TAACGTGTTT and TAACTAGGAG are within error of each other in switch fluorescence ratio: 1 ± 0.017 for the first, 1.12 ± 0.16 for the second.

TAACTATGTA and TAACTGTGGA are within error of each other in switch fluorescence ratio: 1.02 ± 0.034 for the first, 1.08 ± 0.085 for the second.

First: TAACTTACAT
Second: TAACTTGCTC
The switch fluorescence ratio of the first is higher: 1.19 ± 0.018 for the first, 1.05 ± 0.054 for the second.

TAACTTTGGC and TAAGAAATGG are within error of each other in switch fluorescence ratio: 0.9536 ± 0.0091 for the first, 1.02 ± 0.079 for the second.

TAAGAAGTTA and TAAGAATCGC are within error of each other in switch fluorescence ratio: 1.02 ± 0.03 for the first, 1.15 ± 0.2 for the second.

TAAGAATGTT and TAAGAGCTGA are within error of each other in switch fluorescence ratio: 0.977 ± 0.0098 for the first, 0.985 ± 0.023 for the second.

TAAGAGGCAC and TAAGAGGGCT are the same in switch fluorescence ratio: 0.996 ± 0.052 for the first, 0.996 ± 0.022 for the second.

TAAGAGGGGT and TAAGAGTACT are within error of each other in switch fluorescence ratio: 1.03 ± 0.07 for the first, 1.008 ± 0.0019 for the second.

TAAGAGTGCA and TAAGATCTTA are within error of each other in switch fluorescence ratio: 0.973 ± 0.027 for the first, 0.997 ± 0.015 for the second.

TAAGATGTAG and TAAGATGTTG are within error of each other in switch fluorescence ratio: 0.9957 ± 0.0011 for the first, 1.01 ± 0.019 for the second.

TAAGATTACA and TAAGATTGTT are the same in switch fluorescence ratio: 1.017 ± 0.006 for the first, 1.02 ± 0.017 for the second.

TAAGCAGGTT and TAAGCATAAG are within error of each other in switch fluorescence ratio: 0.995 ± 0.017 for the first, 1.01 ± 0.027 for the second.

Going from TAAGCCGCCT to TAAGCCTTTT, the switch fluorescence ratio rises from 0.998 ± 0.016 to 1.038 ± 0.0024.

Going from TAAGCGCGGC to TAAGCGGGG, the switch fluorescence ratio falls from 1.055 ± 0.0079 to 1.002 ± 0.0026.

Going from TAAGCGGGGA to TAAGCGTCTG, the switch fluorescence ratio falls from 1.027 ± 0.0054 to 1.013 ± 0.0057.

TAAGCTATTT and TAAGCTGCGT are within error of each other in switch fluorescence ratio: 1.02 ± 0.025 for the first, 0.989 ± 0.03 for the second.

Compared with TAAGCTTACA, TAAGCTTTGT is lower in switch fluorescence ratio: 1.04 ± 0.032 for the first, 0.9902 ± 0.0025 for the second.

Compared with TAAGGAATGC, TAAGGAATTG is lower in switch fluorescence ratio: 1.54 ± 0.035 for the first, 1.01 ± 0.045 for the second.

TAAGGACGGG and TAAGGAGGTG are within error of each other in switch fluorescence ratio: 1.02 ± 0.03 for the first, 1.033 ± 0.008 for the second.

First: TAAGGAGTTT
Second: TAAGGCAC
The switch fluorescence ratio of the first is lower: 0.972 ± 0.016 for the first, 1.04 ± 0.017 for the second.

TAAGGCGGAG and TAAGGCGGGG are within error of each other in switch fluorescence ratio: 0.9951 ± 0.0032 for the first, 0.993 ± 0.042 for the second.

TAAGGCTACC and TAAGGCTGC are within error of each other in switch fluorescence ratio: 1.048 ± 0.004 for the first, 1.04 ± 0.076 for the second.

TAAGGGCAGA and TAAGGGGAAA are within error of each other in switch fluorescence ratio: 1.02 ± 0.045 for the first, 0.979 ± 0.026 for the second.

TAAGGGGGAA and TAAGGGGGCC are within error of each other in switch fluorescence ratio: 1.03 ± 0.06 for the first, 1.08 ± 0.16 for the second.

TAAGGGGGCT and TAAGGGGTCC are within error of each other in switch fluorescence ratio: 1.01 ± 0.034 for the first, 0.979 ± 0.013 for the second.

TAAGGGGTTC and TAAGGGGTTT are within error of each other in switch fluorescence ratio: 0.982 ± 0.022 for the first, 1.03 ± 0.058 for the second.

TAAGGGTAAT and TAAGGGTGCA are within error of each other in switch fluorescence ratio: 0.973 ± 0.046 for the first, 0.994 ± 0.064 for the second.

TAAGGGTTTT and TAAGGTCGAT are within error of each other in switch fluorescence ratio: 1 ± 0.036 for the first, 1.01 ± 0.022 for the second.

TAAGGTGGTA and TAAGGTTTTG are within error of each other in switch fluorescence ratio: 1.02 ± 0.014 for the first, 1.01 ± 0.022 for the second.

TAAGGTTTTT and TAAGTATGTT are within error of each other in switch fluorescence ratio: 1.03 ± 0.063 for the first, 1.002 ± 0.0031 for the second.

TAAGTGAGAA and TAAGTGAGGG are within error of each other in switch fluorescence ratio: 0.983 ± 0.038 for the first, 0.981 ± 0.018 for the second.

TAAGTGAGGT and TAAGTGATG are within error of each other in switch fluorescence ratio: 0.99677 ± 0.00077 for the first, 1 ± 0.034 for the second.

TAAGTGCTGG and TAAGTGGGCC are within error of each other in switch fluorescence ratio: 1.01 ± 0.016 for the first, 1 ± 0.036 for the second.

TAAGTGGTCG and TAAGTTAGTC are within error of each other in switch fluorescence ratio: 1.03 ± 0.036 for the first, 1.02 ± 0.012 for the second.

TAAGTTATAT and TAAGTTATGG are within error of each other in switch fluorescence ratio: 0.985 ± 0.015 for the first, 0.997 ± 0.02 for the second.

TAAGTTGATC and TAAGTTGGTA are within error of each other in switch fluorescence ratio: 0.989 ± 0.053 for the first, 0.9521 ± 0.0054 for the second.

TAAGTTGGTG and TAAGTTTTAG are within error of each other in switch fluorescence ratio: 0.976 ± 0.018 for the first, 1.07 ± 0.081 for the second.

TAATAAAATT and TAATAAATGT are within error of each other in switch fluorescence ratio: 1.04 ± 0.083 for the first, 0.9941 ± 0.0044 for the second.

TAATAAGGCT and TAATAATCTA are within error of each other in switch fluorescence ratio: 0.9935 ± 0.0076 for the first, 1.01 ± 0.027 for the second.

TAATAATTCT and TAATACCAAG are within error of each other in switch fluorescence ratio: 0.99 ± 0.019 for the first, 1 ± 0.029 for the second.

TAATACTATG and TAATACTTAT are within error of each other in switch fluorescence ratio: 1.05 ± 0.074 for the first, 0.994 ± 0.033 for the second.

Compared with TAATAGGCCT, TAATAGGTTG is lower in switch fluorescence ratio: 1.026 ± 0.01 for the first, 0.97 ± 0.012 for the second.

First: TAATAGTTCC
Second: TAATAGTTT
The switch fluorescence ratio of the first is higher: 1.106 ± 0.0025 for the first, 1.04 ± 0.033 for the second.

Compared with TAATATATTT, TAATATTTAA is higher in switch fluorescence ratio: 1.01 ± 0.028 for the first, 1.05 ± 0.009 for the second.

Going from TAATCACAAT to TAATCACGAA, the switch fluorescence ratio rises from 1.032 ± 0.0044 to 1.036 ± 0.0039.

First: TAATCGATAT
Second: TAATCGCCAA
The switch fluorescence ratio of the first is lower: 0.9803 ± 0.0026 for the first, 1.05 ± 0.0039 for the second.

TAATCGCCTG and TAATCGCTAA are within error of each other in switch fluorescence ratio: 0.981 ± 0.034 for the first, 1.13 ± 0.14 for the second.

TAATCGGGGT and TAATGACGCT are within error of each other in switch fluorescence ratio: 0.978 ± 0.038 for the first, 0.997 ± 0.027 for the second.

TAATGAGGGA and TAATGCAGGA are within error of each other in switch fluorescence ratio: 1 ± 0.038 for the first, 1.02 ± 0.015 for the second.

Compared with TAATGGAGGG, TAATGGGAAA is higher in switch fluorescence ratio: 0.965 ± 0.047 for the first, 1.04 ± 0.013 for the second.

TAATGGGACG and TAATGGGGAC are within error of each other in switch fluorescence ratio: 1.08 ± 0.14 for the first, 0.967 ± 0.03 for the second.

TAATGGGGAG and TAATGGTATG are within error of each other in switch fluorescence ratio: 0.993 ± 0.014 for the first, 0.982 ± 0.039 for the second.

First: TAATGGTATT
Second: TAATGGTTGC
The switch fluorescence ratio of the first is lower: 0.97547 ± 0.00097 for the first, 0.996 ± 0.014 for the second.

TAATGGTTTT and TAATGTAACG are within error of each other in switch fluorescence ratio: 1.02 ± 0.025 for the first, 1 ± 0.063 for the second.

TAATGTAATG and TAATGTGGTA are within error of each other in switch fluorescence ratio: 0.999 ± 0.031 for the first, 0.979 ± 0.056 for the second.

TAATGTTTGC and TAATTAAATA are within error of each other in switch fluorescence ratio: 1.01 ± 0.033 for the first, 1.04 ± 0.038 for the second.

TAATTAAGGA and TAATTAATAG are within error of each other in switch fluorescence ratio: 1.004 ± 0.0096 for the first, 0.9971 ± 0.0031 for the second.

TAATTAATGC and TAATTAGGGG are within error of each other in switch fluorescence ratio: 1.02 ± 0.037 for the first, 1.06 ± 0.083 for the second.

TAATTATAGC and TAATTATAGT are within error of each other in switch fluorescence ratio: 1.05 ± 0.049 for the first, 1.01 ± 0.011 for the second.

TAATTCCCGT and TAATTCGAG are within error of each other in switch fluorescence ratio: 1.01 ± 0.036 for the first, 1.04 ± 0.029 for the second.

TAATTCGGAT and TAATTCGTTA are within error of each other in switch fluorescence ratio: 2.07 ± 1.8 for the first, 0.992 ± 0.037 for the second.

First: TAATTGAGGC
Second: TAATTGCGGT
The switch fluorescence ratio of the first is higher: 1.04 ± 0.017 for the first, 1.007 ± 0.0045 for the second.

TAATTGGAGA and TAATTGGGTT are within error of each other in switch fluorescence ratio: 0.989 ± 0.014 for the first, 1 ± 0.019 for the second.

TAATTGT and TAATTGTTAT are within error of each other in switch fluorescence ratio: 0.976 ± 0.03 for the first, 0.986 ± 0.024 for the second.

TAATTTAAGA and TAATTTAATA are within error of each other in switch fluorescence ratio: 1.01 ± 0.013 for the first, 1.02 ± 0.011 for the second.

TAATTTAGTG and TAATTTCTGC are within error of each other in switch fluorescence ratio: 0.9858 ± 0.0056 for the first, 0.993 ± 0.018 for the second.

In the case of TAATTTGAAC, the switch fluorescence ratio is reported as 1.02 ± 0.043.
